{"source": "patent US8969026B2", "about": "“Polymeric reverse micelles as selective extraction agents and related methods of MALDI-MS analysis” (University of Massachusetts, priority 2007, dated 2015)", "key": {"[1]": {"settings": "fluorescent pI markers, cited from earlier work; for Pka: second pKa column"}, "[2]": {"test": "Inverse micelle (polymer 1) extraction of a myoglobin tryptic digest at pH 7.1, MALDI-MS", "assay_type": "physicochemical", "settings": "myoglobin tryptic digest 1 μM, polymer 1 in toluene, K = Iorg/Iaq, [M+H]+, 3 replicates", "description": "All of the peptides with pI values above 7.1 are extracted effectively, and with only one exception, peptides with pI values below 7.1 are not extracted effectively. Among the peptide fragments tested, the only exception is the peptide N140-G153 (m/z 1553), a peptide fragment that has a pI below 7.1 and still has K>1. […] One of two reasons could explain the observed results: First, because the pH of the solution is so close to the pI of this peptide, a significant fraction of the peptide is positively-charged at pH 7.1 and therefore extracted. Alternatively, the theoretically calculated pI value may be low.\n(§1) A typical biphasic extraction procedure involves mixing 200 μL of a toluene solution of homopolymer 1 or 2 (1×10^−4 M) with 1 mL of an aqueous solution of peptide(s) that was buffered to pH ˜7.0 with 50 mM Tris/TrisHCl. The mixture is vortexed for 10 to 120 minutes and centrifuged at 12000 rpm for 30-40 minutes to break the resulting emulsion and separate the organic and aqueous layers. The top (organic) layer is then recovered and dried to obtain a solid residue. The residue is redissolved into 10 μL of THF and sonicated for 10 seconds to promote solubilization. Finally, 20 μL of an α-CHCA matrix solution (0.16 Min 60:40:0.3% THF:H2O:TFA) are added to the sample for a final volume of 30 μL. For MALDI-MS analysis the samples are applied to the target using the dried-droplet method, where 1 μL of the sample/matrix mixture is spotted on a stainless-steel target, and the solvent is evaporated at room temperature. The residual aqueous phase (˜1 mL) after extraction is also examined by MALDI-MS. Equal amounts (5 μL) of the aqueous phase and the matrix solution (0.16 M α-CHCA in 60:40:0.3% THF:H2O:TFA) are mixed, and 1 μL of the resulting solution is spotted, using the dried droplet method, on a stainless-steel target for MALDI-MS analysis.\nExtraction of the myoglobin digest was done in a manner similar to described above. 1 mL aliquots of a 1×10^−6 M protein digest were buffered at pH 7.1 with 50 mM TRIS, mixed with 200 μL of a toluene solution of homopolymer 1 (1×10^−4 M), extracted, and analyzed by MALDI-MS as detailed above.\nProteolytic digestion. For the myoglobin tryptic digests, 110 μl of protein solution (˜3×10^−4 M in 50 mM TRIS buffer) were mixed with 40 μL of MeOH. The mixture was heated at 60° C. for 10 minutes to denature the protein. 150 μL of a trypsin solution, which contained 2 μg/450 μL of protein, 50 mM TRIS buffer, and 1 mM CaCl2, was added to the denatured protein sample, and the mixture was left to digest at 37° C. for 24 hours. The digestion was stopped by filtering the solution through a 10K MWCO Centricon filter. The filtrates were diluted to the desired concentration and used for extraction and analysis."}, "[3]": {"test": "pH-dependent biphasic extraction of a peptide mixture with inverse micelles of polymer 1 in toluene, MALDI-MS ion abundance ratio", "assay_type": "physicochemical", "settings": "polymer 1 inverse micelles in toluene, K = Iorg/Iaq, [M+H]+ signal, [M+K]+ for spinorphin and β-amyloid, at least 4 replicates; for Ion abundance ratio (K ± sM) pH 4.0: aqueous pH 4.0; for Ion abundance ratio (K ± sM) pH 7.1: aqueous pH 7.1; for Ion abundance ratio (K ± sM) pH 9.0: aqueous pH 9.0", "description": "The net charge within the inverse micelle of 1 is negative, affording a selective extraction of positively-charged peptides. In a typical experiment, a toluene solution containing 1 was mixed with an aqueous solution containing a mixture of peptides. After vortexing this mixture, the organic layer was separated and analyzed using MALDI-MS. […] Because the aqueous solution was buffered at a pH of 7.1, peptides with pI values above 7.1 were expected to be sequestered into the interior of the inverse micelles, while peptides with pI values below 7.1 would be mostly excluded based on Coulombic repulsion.\nThe ion abundance ratio is related to the extraction capacity of the polymer, and can be defined as the ratio of the MALDI ion abundance of the peptide in the organic phase that contains the inverse micelles (Iorg) to the ion abundance of the peptide remaining in the aqueous phase (Iaq) (K=Iorg/Iaq). These experiments were performed with the hypothesis that the extraction would be based on electrostatic interaction between the polymer and the peptide. To test this premise further, two control experiments were carried out. […] Therefore, a two-phase extraction experiment was done in the absence of homopolymer 1, and no peptide extraction into the organic phase was observed. Second, peptide extractions using a polymer without the negatively-charged functionality were performed. Polymer 2 contains charge-neutral pentaethyleneglycol functionalities instead of the carboxylic acid moieties. […] These two results are consistent with the hypothesis that the extraction is based on electrostatics.\nWithout limitation to any one theory or mode of operation, the pH of the overall aqueous solution is also likely to dictate the pH of the hydrated interiors of the inverse micelle where the binding takes place. Accordingly, extractions at three different pHs: 4.0, 7.1, and 9.0 were carried out; the results of these experiments are listed in Table 1. […] The results from experiments at pH 7.1 and 9.0 further support this idea. It should be noted that when the experiment is carried out at pH 9.0, the peptide with a pI of 7.7 is extracted to some extent. Such a result could be attributed to errors associated with aqueous solution pH measuring or to errors in the peptide pI calculation. Nonetheless, the tunability is still significant and therefore is a very useful result.\nA Bruker Reflex III time-of-flight mass spectrometer was used to perform MALDI-MS analysis. The mass spectrometer is equipped with a 337-nm nitrogen laser, a 1.0 m flight tube, and a stainless steel sample target. All mass spectra were acquired in reflectron mode using a voltage of 16 kV. All reported spectra represent an average of 70 shots acquired at 30% laser power. The accelerating voltage was set to 20 kV.\nas §1, with “Equal amounts (5 μL) of the aqueous phase and the matrix solution (0.16 M α-CHCA in 60:40:0.3% THF:H2O:TFA) are mixed, and 1 μL of the resulting solution is spotted, using the dried droplet method, on a stainless-steel target for MALDI-MS analysis.” left out"}}}
{"compound": "Nc1ccccc1C(=O)NCCCCCC(=O)O", "note": "[pI marker 3]", "values": [{"measurement": "pI", "setting": "[1]", "value": 4.0}]}
{"compound": "NCCCCCCNCCCCCCNC(=O)c1cc2ccccc2cc1O", "note": "[pI marker 9]", "values": [{"measurement": "Pka1", "setting": "[1]", "value": 9.95}, {"measurement": "pI", "setting": "[1]", "value": 10.3}, {"measurement": "Pka", "setting": "[1]", "value": 10.65}]}
{"compound": "GLSDGEWQQVLNVWGK (listed as Equus caballus) [tryptic fragment of equine myoglobin]", "values": [{"measurement": "Ion abundance ratio (K ± sM)", "setting": "[2]", "value": "0.3 ± 0.1"}]}
{"compound": "NDIAAKYKELGFQG (NDLAAKYKELGFQG; listed as Equus caballus) [tryptic fragment of equine myoglobin]", "values": [{"measurement": "Ion abundance ratio (K ± sM)", "setting": "[2]", "value": "1.4 ± 0.4"}, {"measurement": "Ion abundance ratio (K ± sM)", "setting": "[2]; listed as N140-G153", "value": 1.4}]}
{"compound": "HGTVVLTALGGILK (listed as Equus caballus) [tryptic fragment of equine myoglobin]", "values": [{"measurement": "Ion abundance ratio (K ± sM)", "setting": "[2]", "value": "32 ± 5"}]}
{"compound": "O=C(NCCN1CCOCC1)c1cc2ccccc2cc1O", "note": "[pI marker 6]", "values": [{"measurement": "Pka1", "setting": "[1]", "value": 6.20}, {"measurement": "pI", "setting": "[1]", "value": 7.2}, {"measurement": "Pka", "setting": "[1]", "value": 8.10}]}
{"compound": "YLEFISDAIIHVLHSK (listed as Equus caballus) [tryptic fragment of equine myoglobin]", "values": [{"measurement": "Ion abundance ratio (K ± sM)", "setting": "[2]", "value": 0.0}]}
{"compound": "IARRHPYFL (listed as Homo sapiens) [Kinetensin, human peptide purchased from American Peptide Company]", "values": [{"measurement": "Ion abundance ratio (K ± sM) pH 4.0", "setting": "[3]", "value": "337 ± 79"}, {"measurement": "Ion abundance ratio (K ± sM) pH 7.1", "setting": "[3]", "value": "882 ± 212"}, {"measurement": "Ion abundance ratio (K ± sM) pH 9.0", "setting": "[3]", "value": "616 ± 198"}]}
{"compound": "HGTVVLTALGGILKK (listed as Equus caballus) [tryptic fragment of equine myoglobin]", "values": [{"measurement": "Ion abundance ratio (K ± sM)", "setting": "[2]", "value": "51 ± 10"}]}
{"compound": "NCCCN1CCN(CCCNC(=O)c2cc3ccccc3cc2O)CC1", "note": "[pI marker 8]", "values": [{"measurement": "Pka1", "setting": "[1]", "value": 8.05}, {"measurement": "pI", "setting": "[1]", "value": 9.0}, {"measurement": "Pka", "setting": "[1]", "value": 9.85}]}
{"compound": "GHHEAELKPLAQSHATK (listed as Equus caballus) [tryptic fragment of equine myoglobin]", "values": [{"measurement": "Ion abundance ratio (K ± sM)", "setting": "[2]", "value": "425 ± 61"}]}
{"compound": "ALELFRNDIAAK [tryptic fragment of equine myoglobin]", "values": [{"measurement": "Ion abundance ratio (K ± sM)", "setting": "[2]", "value": "0.7 ± 0.1"}]}
{"compound": "KKGHHEAELKPLAQSHATK (listed as Equus caballus) [tryptic fragment of equine myoglobin]", "values": [{"measurement": "Ion abundance ratio (K ± sM)", "setting": "[2]", "value": "140 ± 12"}]}
{"compound": "KGHHEAELKPLAQSHATK (listed as Equus caballus) [tryptic fragment of equine myoglobin]", "values": [{"measurement": "Ion abundance ratio (K ± sM)", "setting": "[2]", "value": "310 ± 0.2"}]}
{"compound": "O=C(NCCN1CCOCC1)c1cc2ccccc2c(Br)c1O", "note": "[pI marker 5]", "values": [{"measurement": "Pka1", "setting": "[1]", "value": 5.35}, {"measurement": "pI", "setting": "[1]", "value": 6.2}, {"measurement": "Pka", "setting": "[1]", "value": 6.95}]}
{"compound": "KHGTVVLTALGGILK (listed as Equus caballus) [tryptic fragment of equine myoglobin]", "values": [{"measurement": "Ion abundance ratio (K ± sM)", "setting": "[2]", "value": "51 ± 10"}]}
{"compound": "ASEDLKKHGTVVLTALGGILK (listed as Equus caballus) [tryptic fragment of equine myoglobin]", "values": [{"measurement": "Ion abundance ratio (K ± sM)", "setting": "[2]", "value": "36 ± 4"}]}
{"compound": "LFTGHPETLEKFDKFK (listed as Equus caballus) [tryptic fragment of equine myoglobin]", "values": [{"measurement": "Ion abundance ratio (K ± sM)", "setting": "[2]", "value": "41 ± 6"}]}
{"compound": "S YSMEHFRWGKPV [ACTH Human]", "values": [{"measurement": "Ion abundance ratio (K ± sM) pH 4.0", "setting": "[3]", "value": "221 ± 37"}, {"measurement": "Ion abundance ratio (K ± sM) pH 7.1", "setting": "[3]", "value": "422 ± 87"}, {"measurement": "Ion abundance ratio (K ± sM) pH 9.0", "setting": "[3]", "value": "128 ± 41"}]}
{"compound": "HPGDFGADAQGAMTK (listed as Equus caballus) [tryptic fragment of equine myoglobin]", "values": [{"measurement": "Ion abundance ratio (K ± sM)", "setting": "[2]", "value": "0.05 ± 0.004"}]}
{"compound": "YKELGFQG (listed as Equus caballus) [tryptic fragment of equine myoglobin]", "values": [{"measurement": "Ion abundance ratio (K ± sM)", "setting": "[2]", "value": "0.01 ± 0.001"}]}
{"compound": "VEADIAGHGQEVLIR (listed as Equus caballus) [tryptic fragment of equine myoglobin]", "values": [{"measurement": "Ion abundance ratio (K ± sM)", "setting": "[2]", "value": "0.3 ± 0.04"}]}
{"compound": "LFTGHPETLEK (listed as Equus caballus) [tryptic fragment of equine myoglobin]", "values": [{"measurement": "Ion abundance ratio (K ± sM)", "setting": "[2]", "value": "0.02 ± 0.02"}]}
